Assay results as given in publication PMC4989506.

What was measured:
[1] = target: recombinant albicin (Anopheles albimanus complement inhibitor) (Anopheles albimanus); assay: SPR
C3b (human) = C3b (human) (UniProt P01024); assay: SPR

Sequence of properdin (P27918 28-469): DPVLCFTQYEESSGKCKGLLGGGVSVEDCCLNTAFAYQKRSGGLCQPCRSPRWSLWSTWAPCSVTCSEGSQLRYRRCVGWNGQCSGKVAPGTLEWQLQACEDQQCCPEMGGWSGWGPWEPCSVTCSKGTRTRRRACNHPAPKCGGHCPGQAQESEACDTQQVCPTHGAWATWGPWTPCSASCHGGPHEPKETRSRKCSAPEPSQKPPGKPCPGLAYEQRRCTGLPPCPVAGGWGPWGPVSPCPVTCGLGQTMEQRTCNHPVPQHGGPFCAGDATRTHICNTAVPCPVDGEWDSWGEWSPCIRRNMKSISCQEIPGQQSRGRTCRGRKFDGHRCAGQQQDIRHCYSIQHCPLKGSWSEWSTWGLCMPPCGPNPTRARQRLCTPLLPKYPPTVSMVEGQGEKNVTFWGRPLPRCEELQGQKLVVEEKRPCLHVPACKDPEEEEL
Sequence of recombinant albicin (Anopheles albimanus complement inhibitor) (Anopheles albimanus) (A0A1Y9G8D0 27-142, tags left off): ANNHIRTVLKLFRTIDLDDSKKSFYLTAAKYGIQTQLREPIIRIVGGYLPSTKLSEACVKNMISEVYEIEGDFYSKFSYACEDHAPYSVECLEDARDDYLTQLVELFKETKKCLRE

properdin (from UniProt P27918 28-469) (natural protein)
K1/2 (concentration at half-saturation) [1]: 11.6 nM | response of properdin coated on the C3b surface (C3b (human)): 1200 RU
